Measurements: publication PMC5384220, “Highly selective inhibition of histone demethylases by de novo macrocyclic peptides” (Nature Communications, 2017)

Tests used:
Assay in all cases: cell-based or functional assay
[1] = target: prolyl hydroxylase domain 2 (UniProt Q9GZT9 1-426)
factor inhibiting HIF = factor inhibiting HIF (UniProt Q9NWT6 1-349)
KDM2A = target: T1, KDM2A (human, UniProt Q9Y2K7 1-1162)
T1 sequence (looked up): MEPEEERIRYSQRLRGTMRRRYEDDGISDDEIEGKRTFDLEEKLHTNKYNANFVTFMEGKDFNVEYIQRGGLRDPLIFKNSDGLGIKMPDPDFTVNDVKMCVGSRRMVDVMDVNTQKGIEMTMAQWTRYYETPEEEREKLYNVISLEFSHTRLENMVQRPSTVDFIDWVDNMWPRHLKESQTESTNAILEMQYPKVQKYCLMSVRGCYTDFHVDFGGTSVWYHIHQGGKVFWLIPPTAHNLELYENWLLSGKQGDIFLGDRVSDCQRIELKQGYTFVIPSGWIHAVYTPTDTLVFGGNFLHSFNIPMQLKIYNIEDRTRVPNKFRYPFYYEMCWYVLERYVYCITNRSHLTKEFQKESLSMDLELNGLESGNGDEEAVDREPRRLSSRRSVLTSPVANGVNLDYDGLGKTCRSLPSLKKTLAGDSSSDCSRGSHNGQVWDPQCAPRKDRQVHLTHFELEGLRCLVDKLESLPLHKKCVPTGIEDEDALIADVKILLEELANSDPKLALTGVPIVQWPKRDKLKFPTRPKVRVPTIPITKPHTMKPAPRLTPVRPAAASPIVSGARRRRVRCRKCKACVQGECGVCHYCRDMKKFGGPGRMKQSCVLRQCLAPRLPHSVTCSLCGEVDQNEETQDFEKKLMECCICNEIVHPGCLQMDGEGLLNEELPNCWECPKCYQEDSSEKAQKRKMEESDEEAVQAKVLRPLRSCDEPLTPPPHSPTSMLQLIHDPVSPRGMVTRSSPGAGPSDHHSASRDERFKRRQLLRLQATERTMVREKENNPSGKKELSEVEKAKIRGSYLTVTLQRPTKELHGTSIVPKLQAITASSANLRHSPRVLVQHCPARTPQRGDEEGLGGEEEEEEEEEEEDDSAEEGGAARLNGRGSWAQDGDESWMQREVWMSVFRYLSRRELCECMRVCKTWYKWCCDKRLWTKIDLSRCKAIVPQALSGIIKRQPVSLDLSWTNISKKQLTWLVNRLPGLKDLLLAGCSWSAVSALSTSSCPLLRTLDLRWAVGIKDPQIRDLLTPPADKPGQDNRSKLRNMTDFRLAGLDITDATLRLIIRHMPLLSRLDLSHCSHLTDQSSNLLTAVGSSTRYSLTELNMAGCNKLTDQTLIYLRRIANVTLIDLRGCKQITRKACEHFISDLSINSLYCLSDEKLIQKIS

KDM1A = KDM1A (human, UniProt O60341 1-852)

Chain of factor inhibiting HIF (Q9NWT6 whole entry): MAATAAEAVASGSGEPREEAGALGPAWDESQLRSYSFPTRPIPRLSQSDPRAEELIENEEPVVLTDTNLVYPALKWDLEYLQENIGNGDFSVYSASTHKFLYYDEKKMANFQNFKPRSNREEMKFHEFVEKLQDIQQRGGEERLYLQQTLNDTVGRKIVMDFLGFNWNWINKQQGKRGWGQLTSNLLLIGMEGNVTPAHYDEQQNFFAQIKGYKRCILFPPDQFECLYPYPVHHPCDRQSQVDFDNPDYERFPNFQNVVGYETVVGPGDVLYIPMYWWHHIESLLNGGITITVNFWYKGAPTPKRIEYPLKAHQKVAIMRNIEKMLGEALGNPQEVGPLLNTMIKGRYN
Chain of prolyl hydroxylase domain 2 (Q9GZT9 whole entry, the tested form may be a part): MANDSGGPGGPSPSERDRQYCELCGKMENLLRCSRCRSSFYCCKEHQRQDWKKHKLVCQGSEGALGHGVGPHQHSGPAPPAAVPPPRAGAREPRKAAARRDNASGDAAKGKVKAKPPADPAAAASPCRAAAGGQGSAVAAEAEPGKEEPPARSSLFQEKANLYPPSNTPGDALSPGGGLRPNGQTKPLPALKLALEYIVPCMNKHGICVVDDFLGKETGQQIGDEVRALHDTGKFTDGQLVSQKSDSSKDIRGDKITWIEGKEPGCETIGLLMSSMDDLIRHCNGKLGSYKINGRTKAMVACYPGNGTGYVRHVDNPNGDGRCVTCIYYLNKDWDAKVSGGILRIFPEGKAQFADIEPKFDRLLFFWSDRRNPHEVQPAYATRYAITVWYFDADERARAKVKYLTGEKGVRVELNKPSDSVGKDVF

- IC50 of inhibition of PHD2 (MALDI–TOF MS assay) [1]: > 1000 µM
- IC50 of inhibition of FIH (MALDI–TOF MS assay) (factor inhibiting HIF): > 1000 µM
- IC50 of inhibition of demethylase activity (AlphaScreen activity assay) (KDM2A): > 10 µM
- IC50 of inhibition of KDM1A/LSD1 (fluorescence-based assay) (KDM1A): > 10 µM
B1: CP4 (peptide)
chain: YLKSRRSGLTWIPC
modifications: not fully specified; N-terminal L-Tyr (^LTyr library, N-chloroacetyl-L-Tyr) cyclised by a thioether to a downstream cysteine
